Data reported in patent US20050079494A1 (MONSANTO TECHNOLOGY, published 2005).

Legend:
[1] = biological target: the molecule itself; experiment: self-assembly in E. coli; 5-25% sucrose density gradient, SDS-PAGE with Coomassie staining
Experimental: (§1) To characterize the expression of the wild-type and epitope-tagged (mature) glycinin A₁ₐB1b protein in E. coli, plasmids pMON65950, pMON65951, and pMON65952 are transformed into E. coli Origami™ (DE3) competent cells according to manufacturer's instructions (Novagen). A single colony is used to inoculate 2 ml LB medium. The culture is grown at 37° C. until a cell density corresponding to A₆₀₀=0.6 is achieved. An amount corresponding to a final concentration of 1 mM isopropyl-1-thio-β-D-galactopyranoside (IPTG) is added to induce protein expression and the culture is incubated at temperatures ranging from 20° to 37° C. at 225 rpm for time periods up to 20 hours. Cells are harvested by centrifugation at 5,000 rpm for 15 min at 4° C. The cell pellet is re-suspended in protein extraction buffer consisting of 20 mM Tris-HCl, pH 7.4, 0.4 M NaCl, 0.1% TritonX-100, 40 μl/ml Protease Inhibitor Cocktail, (stock: 1 tablet/2 ml, Boehringer Mannheim, Indianapolis, Ind.). The cells are then disrupted by sonication (Branson Sonifier 450, Branson Precision Processing, Danbury, Conn.) while maintaining at cold temperature with ice. Soluble proteins are separated from the insoluble fraction by centrifugation at 13,000 rpm for 5 minutes. […]

[2] = biological target: the molecule itself; experiment: self-assembly in E. coli; 5-25% sucrose density gradient, SDS-PAGE with Coomassie or anti-FLAG M2 western blot
Experimental: as §1

[3] = biological target: the molecule itself; experiment: self-assembly in E. coli; sucrose density gradient, anti-FLAG western blot of fractions
Experimental: To determine if the recombinant forms of glycinin A₁ₐB1b expressed in E. coli from […], pMON65951, and pMON65952 could self-assemble to form trimers, aliquots of the soluble protein fraction from E. coli lysates are layered onto 12 ml of a 5-25% sucrose density gradient, and centrifuged at 36,000 rpm for 17.5 hours at 20° C. (Sorvall TH-641 rotor; Sorvall Ultra Pro 80 ultracentrifuge). Following centrifugation, the gradient is divided into fractions using a Labconco Autodensi-Flow instrument (Labconco, Kansas City, Mo.), and each fraction is analyzed by SDS-polyacrylamide gel electrophoresis followed either by Coomassie staining or by western blot analysis using Anti-FLAG M2 antibody (Stratagene Corporation, La Jolla, Calif.), to determine which fractions contained glycinin A₁ₐB1b. 7S and 11S soy protein fractions, as well as ovalbumin (45 kD) and aldolase (158 kD), are run as size markers on separate gradients.
This example sets forth confirmation of the protein structure from the expression of modified glycinin A₁ₐB1b clones. The assembly properties of the following modified forms of the protein (indicated by mutant ID number), each containing a different isoleucine substitution, are determined as described in Example 3. Western blot analysis of sucrose gradient fractions is carried out as in Example 3 using anti-FLAG antibody for each of mutants G1-4 through G13-2.

B1: mature form (plus additional methionine encoded by start codon) of glycinin A1aB1b encoded by pMON65950 (other)
chain: MFSSREQPQQNECQIQKLNALKPDNRIESEGGLIETWNPNNKPFQCAGVALSRCTLNRNALRRPSYTNGPQEIYIQQGKGIFGMIYPGCPSTFEEPQQPQQRGQSSRPQDRHQKIYNFREGDLIAVPTGVAWWMYNNEDTPVVAVSIIDTNSLENQLDQMPRRFYLAGNQEQEFLKYQQEQGGHQSQKGKHQQEEENEGGSILSGFTLEFLEHAFSVDKQIAKNLQGENEGEDKGAIVTVKGGLSVIKPPTDEQQQRPQEEEEEEEDEKPQCKGKDKHCQRPRGSQSKSRRNGIDETICTMRLRHNIGQTSSPDIYNPQAGSVTTATSLDFPALSWLRLSAEFGSLRKNAMFVPHYNLNANSIIYALNGRALIQVVNCNGERVFDGELQEGRVLIVPQNFVVAARSQSDNFEYVSFKTNDTPMIGTLAGANSLLNALPEEVIQHTFNLKSQQARQIKNNNPFKFLVPPQESQKRAVA
notes: Soybean seed storage protein subunit made in E. coli Origami (DE3), no FLAG tag; also called wild-type (mature) glycinin A1aB1b; native form
B1: binds [1].

B2: amino-terminal epitope (FLAG)-tagged form of glycinin A1aB1b encoded by pMON65951 (other)
chain: MDYKDDDDKFSSREQPQQNECQIQKLNALKPDNRIESEGGLIETWNPNNKPFQCAGVALSRCTLNRNALRRPSYTNGPQEIYIQQGKGIFGMIYPGCPSTFEEPQQPQQRGQSSRPQDRHQKIYNFREGDLIAVPTGVAWWMYNNEDTPVVAVSIIDTNSLENQLDQMPRRFYLAGNQEQEFLKYQQEQGGHQSQKGKHQQEEENEGGSILSGFTLEFLEHAFSVDKQIAKNLQGENEGEDKGAIVTVKGGLSVIKPPTDEQQQRPQEEEEEEEDEKPQCKGKDKHCQRPRGSQSKSRRNGIDETICTMRLRHNIGQTSSPDIYNPQAGSVTTATSLDFPALSWLRLSAEFGSLRKNAMFVPHYNLNANSIIYALNGRALIQVVNCNGERVFDGELQEGRVLIVPQNFVVAARSQSDNFEYVSFKTNDTPMIGTLAGANSLLNALPEEVIQHTFNLKSQQARQIKNNNPFKFLVPPQESQKRAVA
notes: Mature glycinin A1aB1b with start Met and N-terminal FLAG, made in E. coli; self-assembles to trimers; also called pMON65951 protein
B2: binds [2].

B3: carboxy-terminal epitope (FLAG)-tagged form of glycinin A1aB1b encoded by pMON65952 (other)
chain: MFSSREQPQQNECQIQKLNALKPDNRIESEGGLIETWNPNNKPFQCAGVALSRCTLNRNALRRPSYTNGPQEIYIQQGKGIFGMIYPGCPSTFEEPQQPQQRGQSSRPQDRHQKIYNFREGDLIAVPTGVAWWMYNNEDTPVVAVSIIDTNSLENQLDQMPRRFYLAGNQEQEFLKYQQEQGGHQSQKGKHQQEEENEGGSILSGFTLEFLEHAFSVDKQIAKNLQGENEGEDKGAIVTVKGGLSVIKPPTDEQQQRPQEEEEEEEDEKPQCKGKDKHCQRPRGSQSKSRRNGIDETICTMRLRHNIGQTSSPDIYNPQAGSVTTATSLDFPALSWLRLSAEFGSLRKNAMFVPHYNLNANSIIYALNGRALIQVVNCNGERVFDGELQEGRVLIVPQNFVVAARSQSDNFEYVSFKTNDTPMIGTLAGANSLLNALPEEVIQHTFNLKSQQARQIKNNNPFKFLVPPQESQKRAVADYKDDDDK
notes: Mature glycinin A1aB1b with C-terminal FLAG, made in E. coli; self-assembles to trimers; Template of the isoleucine mutants; also called pMON65952 protein
B3: binds [2].

B4: glycinin A1aB1b mutant g3-5 (other)
chain: FSSREQPQQNECQIQKLNAIKPDNRIESEGGLIETWNPNNKPFQCAGVALSRCTLNRNALRRPSYTNGPQEIYIQQGKGIFGMIYPGCPSTFEEPQQPQQRGQSSRPQDRHQKIYNFREGDIIAVPTGVAWWMYNNEDTPVVAVSIIDTNSIENQLDQMPRRFYLAGNQEQEFLKYQQEQGGHQSQKGKHQQEEENEGGSILSGFTLEFLEHAFSVDKQIAKNLQGENEGEDKGAIVTVKGGLSVIKPPTDEQQQRPQEEEEEEEDEKPQCKGKDKHCQRPRGSQSKSRRNGIDETICTMRLRHNIGQTSSPDIYNPQAGSVTTATSLDFPAISWLRLSAEFGSIRKNAMFVPHYNLNANSIIYAINGRALIQVVNCNGERVFDGELQEGRVLIVPQNFVVAARSQSDNFEYVSFKTNDTPMIGTLAGANSLLNALPEEVIQHTFNLKSQQARQIKNNNPFKFLVPPQESQKRAVADYKDDDDK
B4: no binding [3].

B5: glycinin A1aB1b mutant g6-7 (other)
chain: FSSREQPQQNECQIQKLNAIKPDNRIESEGGLIETWNPNNKPFQCAGVALSRCTLNRNALRRPSYTNGPQEIYIQQGKGIFGMIYPGCPSTFEEPQQPQQRGQSSRPQDRHQKIYNFREGDIIAVPTGVAWWMYNNEDTPVVAVSIIDTNSLENQLDQMPRRFYLAGNQEQEFLKYQQEQGGHQSQKGKHQQEEENEGGSILSGFTLEFLEHAFSVDKQIAKNLQGENEGEDKGAIVTVKGGLSVIKPPTDEQQQRPQEEEEEEEDEKPQCKGKDKHCQRPRGSQSKSRRNGIDETICTMRLRHNIGQTSSPDIYNPQAGSVTTATSLDFPAISWLRLSAEFGSIRKNAMFVPHYNLNANSIIYAINGRALIQVVNCNGERVFDGELQEGRVLIVPQNFVVAARSQSDNFEYVSFKTNDTPMIGTLAGANSLLNALPEEVIQHTFNLKSQQARQIKNNNPFKFLVPPQESQKRAVADYKDDDDK
B5: no binding [3].

B6: glycinin A1aB1b mutant g10-10 (other)
chain: FSSREQPQQNECQIQKLNALKPDNRIESEGGLIETWNPNNKPFQCAGVALSRCTLNRNAIRRPSYTNGPQEIYIQQGKGIFGMIYPGCPSTFEEPQQPQQRGQSSRPQDRHQKIYNFREGDLIAVPTGVAWWMYNNEDTPVVAVSIIDTNSLENQLDQMPRRFYLAGNQEQEFLKYQQEQGGHQSQKGKHQQEEENEGGSILSGFTLEFLEHAFSVDKQIAKNLQGENEGEDKGAIVTVKGGLSVIKPPTDEQQQRPQEEEEEEEDEKPQCKGKDKHCQRPRGSQSKSRRNGIDETICTMRIRHNIGQTSSPDIYNPQAGSVTTATSLDFPALSWIRLSAEFGSLRKNAMFVPHYNLNANSIIYALNGRALIQVVNCNGERVFDGELQEGRVIIVPQNFVVAARSQSDNFEYVSFKTNDTPMIGTLAGANSLLNALPEEVIQHTFNLKSQQARQIKNNNPFKFLVPPQESQKRAVADYKDDDDK
B6: no binding [3].

B7: glycinin A1aB1b mutant g6-4 (other)
chain: FSSREQPQQNECQIQKLNAIKPDNRIESEGGLIETWNPNNKPFQCAGVALSRCTLNRNALRRPSYTNGPQEIYIQQGKGIFGMIYPGCPSTFEEPQQPQQRGQSSRPQDRHQKIYNFREGDLIAVPTGVAWWMYNNEDTPVVAVSIIDTNSIENQLDQMPRRFYLAGNQEQEFLKYQQEQGGHQSQKGKHQQEEENEGGSILSGFTLEFLEHAFSVDKQIAKNLQGENEGEDKGAIVTVKGGLSVIKPPTDEQQQRPQEEEEEEEDEKPQCKGKDKHCQRPRGSQSKSRRNGIDETICTMRLRHNIGQTSSPDIYNPQAGSVTTATSLDFPAISWLRLSAEFGSIRKNAMFVPHYNLNANSIIYAINGRALIQVVNCNGERVFDGELQEGRVLIVPQNFVVAARSQSDNFEYVSFKTNDTPMIGTLAGANSLLNALPEEVIQHTFNLKSQQARQIKNNNPFKFLVPPQESQKRAVADYKDDDDK
B7: no binding [3].
